Here are results for one molecule from patent US7754689B2, “Finger-1 peptide analogs of the TGF-β superfamily” (Wyeth LLC, priority 2006, dated 2010).

This experiment deals with T1, BMP-3 (Homo sapiens, UniProt P12645).
T1 construct: a propeptide fragment copurifies along with the mature protein; made in house; host or cells: CHO cells (conditioned medium)
T1 sequence (P12645 363-472): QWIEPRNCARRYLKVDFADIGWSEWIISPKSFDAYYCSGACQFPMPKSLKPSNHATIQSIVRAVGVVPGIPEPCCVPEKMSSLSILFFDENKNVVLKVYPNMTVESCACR
Put plainly: Affinity column chromatography, capture and elution of BMP-3. The experiment is classed as binding. Here is the method:
BMP-12 was immobilized on NHS-activated Sepharose™ beads at a ratio of about 20 mg:4 mL and the resulting media combined with water or neutral saline buffer to prepare a column. CHO-conditioned media augmented with 1.2 M NaCl was loaded onto the column. In some cases, the media was preconcentrated with respect to BMP before loading. The column was washed with 15 CV (column volumes) of 1.2 M NaCl in 40 mM Na2HPO4 at pH 7.2, followed by 0.5 M arginine/0.5 M NaCl in 20 mM Tris at pH 7.5 (15 CV) and a low salt wash (50 mM ammonium acetate at pH 7, 15 CV). […] Finally, the column was eluted with 5CV of the acetic acid solution with 6M guanidine hydrochloride (GuHCl).
The eluate was analyzed using HPLC.
4 mL of the resulting resin (1.6×2.0 cm) was used to prepare a column. The column was loaded with BMP-3 and eluted as in Example 1.

B1: BMP-12: Bone Morphogenic Protein, member of the TGF-β superfamily; tested in solution and immobilized on Sepharose beads as affinity ligand (protein)
chain: TALAGTRTAQGSGGGAGRGHGRRGRSRCSRKPLHVDFKELGWDDWIIAPLDYEAYHCEGLCDFPLRSHLEPTNHAIIQTLLNSMAPDAAPASCCVPARLSPISILYIDAANNVVYKQYEDMVVEACGCR
On to B1, for which the “capture of BMP-3 by column with immobilized ligand” value (CHO-conditioned media with 1.2 M NaCl (high salt) load) was “effectively captured”. Besides, for the setting “washes, then gradient to 50 mM acetic acid pH 3, then 6M GuHCl”, the “elution of BMP-3 from column with immobilized ligand” value is on record as “eluted with acetic acid”.
